Measurements taken from patent US20050063985A1 (MCW RESEARCH FOUNDATION, published 2005).

Molecular target: T1, glutathione S transferase (pGEX-4T-2 vector control lysate) (UniProt P08515 1-218 = GST)
T1 construct: In a bacterial lysate; also called GST; Control bacterial lysates encoding only glutathione S transferase
Experiment: Western or dot blot, bacterial lysate

T1 sequence (P08515 whole entry): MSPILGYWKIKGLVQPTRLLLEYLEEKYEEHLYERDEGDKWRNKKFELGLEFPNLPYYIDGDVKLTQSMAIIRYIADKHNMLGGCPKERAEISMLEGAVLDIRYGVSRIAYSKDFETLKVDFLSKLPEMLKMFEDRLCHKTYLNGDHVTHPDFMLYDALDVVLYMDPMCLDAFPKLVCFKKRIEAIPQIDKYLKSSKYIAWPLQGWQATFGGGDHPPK

B1: monoclonal antibody mab 166 (antibody, V domains shown)
VH: QVQLKQSGPGLVQPSQSLSITCTVSGFSLTSYGVHWVRQSPGKGLEWLGVIWSGGDTDYNAAFISRLSISKDNSKSQLFFKMNSLRATDTAIYYCARNRGDIYYDFTYAMDYWGQGTSVTVSS
VL: DIQMTQSPASLSASVGETVTITCRASGNIQNYLAWYQQTQGKSPQLLVYSAKTLADGVPSRFSGSGSGTQYSLKINSLQPEDFGSYYCQHFWSTPYTFGGGTKLEIKR
notes: also called mabl66; m166
B1: no binding.
